Assays:
[1] = tested on: PARP2 (Homo sapiens); assay: fluorescence polarization; details: not stated in the material (methods in supplement)
[2] = tested on: PARP1 (Homo sapiens); assay: fluorescence polarization; details: not stated in the material (methods in supplement)

Substance: 19mer
- Kd [1]: 55 nM

Substance: gas5
- Kd [2]: 350 nM
- Kd [1]: 40 nM

Substance: p18mer DNA
- Kd [2]: 13 nM
- Kd [1]: 59 nM

Substance: tRNALeu
- Kd [2]: 159 nM
- Kd [1]: 37 nM
